Reference: the Immune Epitope Database (IEDB)

What was measured:
[1] = biological target: HLA-B*44:03; experiment: IEDB peptide-MHC binding, purified MHC/competitive/radioactivity; filed as Kd, often an IC50 or EC50 that approximates it; ≥ and ≤ were set here for values at or beyond the usual limits of such assays
[2] = biological target: HLA-B*44:02; experiment: as above
[3] = biological target: HLA-A*01:01; experiment: as above
[4] = biological target: HLA-A*30:02; experiment: as above
[5] = biological target: HLA-B*15:01; experiment: as above
[6] = biological target: HLA-A*23:01; experiment: as above
[7] = biological target: HLA-A*26:01; experiment: as above; settings: source organism: SARS coronavirus Tor2
[8] = biological target: HLA-A*29:02; experiment: as above
[9] = biological target: HLA-A*24:02; experiment: as above
[10] = biological target: HLA-A*33:01; experiment: as above; settings: source organism: SARS coronavirus Tor2
[11] = biological target: HLA-A*68:01; experiment: as above; settings: source organism: SARS coronavirus Tor2
[12] = biological target: HLA-A*31:01; experiment: IEDB peptide-MHC binding, purified MHC/direct/fluorescence; filed as Kd, often an IC50 or EC50 that approximates it; ≥ and ≤ were set here for values at or beyond the usual limits of such assays; settings: source organism: SARS-CoV1
[13] = biological target: HLA-B*40:01; experiment: IEDB peptide-MHC binding, purified MHC/competitive/radioactivity; filed as Kd, often an IC50 or EC50 that approximates it; ≥ and ≤ were set here for values at or beyond the usual limits of such assays
[14] = biological target: HLA-A*30:01; experiment: as above; settings: source organism: Dengue virus 3 Martinique/1243/1999
[15] = biological target: HLA-B*53:01; experiment: as above
[16] = biological target: HLA-B*58:01; experiment: IEDB peptide-MHC binding, purified MHC/direct/fluorescence; filed as Kd, often an IC50 or EC50 that approximates it; ≥ and ≤ were set here for values at or beyond the usual limits of such assays; settings: source organism: SARS-CoV1
[17] = biological target: HLA-A*01:01; experiment: as above; settings: source organism: SARS-CoV1
[18] = biological target: HLA-A*11:01; experiment: as above; settings: source organism: SARS-CoV1
[19] = biological target: HLA-A*03:01; experiment: as above; settings: source organism: SARS-CoV1
[20] = biological target: HLA-B*15:01; experiment: as above; settings: source organism: Mammarenavirus lassaense
[21] = source organism: Dengue virus 2 Jamaica/1409/1983
[22] = source organism: Dengue virus 1 Singapore/S275/1990
[23] = source organism: SARS coronavirus Tor2
[24] = source organism: Dengue virus 3 Martinique/1243/1999
[25] = source organism: Dengue virus 1 Brazil/97-11/1997
[26] = source organism: Dengue virus 4 Philippines/H241/1956
[27] = source organism: Vaccinia virus WR
[28] = source organism: Mammarenavirus lassaense
[29] = source organism: Mammarenavirus whitewaterense

AECPNTNRAW
Kd [1, 21]: 53 nM | Kd [2, 21]: 35.6 nM

ALGKSEFQIY
Kd [3, 21]: 1540 nM | Kd [4, 21]: ≥ 69700 nM

AQIMEVTARW
Kd [1, 22]: 104 nM | Kd [2, 22]: 156 nM

AQKRAAAGIM
Kd [5, 21]: 68.7 nM

ASEFSSLPSY
Kd [6, 23]: ≥ 70000 nM | Kd [3, 23]: 14.1 nM | Kd [4, 23]: 47.4 nM | Kd [7]: 11900 nM | Kd [8, 23]: 102 nM | Kd [9, 23]: ≥ 70300 nM

AVLQSGFRK
Kd [10]: ≥ 77700 nM | Kd [11]: 393 nM | Kd [12]: 186 nM

AWEILKFLI
Kd [6, 23]: 3630 nM | Kd [3, 23]: ≥ 78100 nM | Kd [4, 23]: ≥ 25300 nM | Kd [7]: ≥ 57000 nM | Kd [8, 23]: 4100 nM | Kd [9, 23]: 2960 nM

AYNVVNKGHF
Kd [6, 23]: 476 nM | Kd [3, 23]: ≥ 55200 nM | Kd [4, 23]: 11200 nM | Kd [7]: ≥ 37500 nM | Kd [8, 23]: 978 nM | Kd [9, 23]: 316 nM

EEFLDYMPSM
Kd [13, 24]: 142 nM | Kd [1, 24]: 70.8 nM | Kd [14]: 2290 nM

EERDDTLTIL
Kd [13, 25]: 22 nM

EPSKGWKNW
Kd [15, 26]: 608 nM

ESQMLIPKAY
Kd [3, 26]: ≥ 39300 nM | Kd [4, 26]: 8.93 nM

ESVKTQFNY
Kd [6, 23]: ≥ 77800 nM | Kd [3, 23]: 2610 nM | Kd [4, 23]: 505 nM | Kd [7]: 902 nM | Kd [8, 23]: 31.2 nM | Kd [9, 23]: ≥ 77600 nM

FETTMRGAKR
Kd [13, 21]: 3580 nM

FIDTIKSLDY
Kd [6, 23]: ≥ 70000 nM | Kd [3, 23]: 458 nM | Kd [4, 23]: 4390 nM | Kd [7]: ≥ 24900 nM | Kd [8, 23]: 506 nM | Kd [9, 23]: ≥ 70300 nM

FLHNYILYA
Kd [5, 27]: 1560 nM

FWITAIYVF
Kd [6, 23]: 163 nM | Kd [3, 23]: 629 nM | Kd [4, 23]: 22.8 nM | Kd [7]: 547 nM | Kd [8, 23]: 26.9 nM | Kd [9, 23]: 853 nM

GEFRLRGEQR
Kd [13, 26]: 1400 nM

GEKALKLSW
Kd [1, 25]: 40.2 nM | Kd [2, 25]: 39.7 nM

GESNIVIGI
Kd [13, 24]: 2.36 nM | Kd [1, 24]: 5.95 nM | Kd [2, 24]: 10.8 nM

GLAAEWVLAY
Kd [6, 23]: ≥ 70000 nM | Kd [3, 23]: 466 nM | Kd [4, 23]: 858 nM | Kd [7]: 363 nM | Kd [8, 23]: 69.4 nM | Kd [9, 23]: ≥ 70300 nM

GTDSGFAAY
Kd [6, 23]: ≥ 77800 nM | Kd [4, 23]: 15.7 nM | Kd [7]: 2350 nM | Kd [8, 23]: 52.9 nM | Kd [9, 23]: ≥ 77600 nM | Kd [16]: 11600 nM | Kd [17]: 13 nM | Kd [18]: 103 nM | Kd [19]: 714 nM

HERGRPLLF
Kd [1, 26]: 1000 nM

HETGRLEPSW
Kd [1, 26]: 188 nM | Kd [2, 26]: ≥ 70200 nM

IGKALHQVF
Kd [5, 21]: 374 nM

IPQWEPSKGW
Kd [15, 25]: 90 nM

IQNKLSSTF
Kd [6, 28]: 345 nM | Kd [8, 28]: ≥ 35000 nM | Kd [9, 28]: 272 nM | Kd [20]: 24 nM

IQPFLALGF
Kd [5, 24]: 16.5 nM

IYQPESQKF
Kd [6, 29]: 53.4 nM | Kd [8, 29]: 412 nM | Kd [9, 29]: 33.5 nM

IYVILTILTI
Kd [6, 26]: 11.8 nM | Kd [9, 26]: 48.6 nM

KEENMVKSLV
Kd [13, 24]: 243 nM

KEFASGRKSI
Kd [13, 26]: 111 nM

KEGTFHTMW
Kd [1, 21]: 47 nM | Kd [2, 21]: 102 nM

KGCKLTETM
Kd [5, 27]: 1250 nM

KIKHKGMSF
Kd [5, 27]: 47.2 nM

LETPNLAERV
Kd [13, 22]: 1010 nM

LIDGISLGL
Kd ([3]; source organism: Dengue virus 4 Dominica/814669/1981): 10400 nM

LIGLTSRATW
Kd [15, 21]: 459 nM

LMANLAPHL
Kd [6, 23]: 11800 nM | Kd [3, 23]: 6080 nM | Kd [4, 23]: 12000 nM | Kd [7]: ≥ 77900 nM | Kd [8, 23]: 3650 nM | Kd [9, 23]: ≥ 31200 nM

LPEEQDQNY
Kd [15, 24]: 1520 nM
